Here are results for 6 variants from IntAct's records for PubMed 20696398.

B1: Vacuolar protein sorting-associated protein 4 (Saccharomyces cerevisiae), P52917 (parent)
chain: MSTGDFLTKGIELVQKAIDLDTATQYEEAYTAYYNGLDYLMLALKYEKNPKSKDLIRAKFTEYLNRAEQLKKHLESEEANAAKKSPSAGSGSNGGNKKISQEEGEDNGGEDNKKLRGALSSAILSEKPNVKWEDVAGLEGAKEALKEAVILPVKFPHLFKGNRKPTSGILLYGPPGTGKSYLAKAVATEANSTFFSVSSSDLVSKWMGESEKLVKQLFAMARENKPSIIFIDEVDALTGTRGEGESEASRRIKTELLVQMNGVGNDSQGVLVLGATNIPWQLDSAIRRRFERRIYIPLPDLAARTTMFEINVGDTPCVLTKEDYRTLGAMTEGYSGSDIAVVVKDALMQPIRKIQSATHFKDVSTEDDETRKLTPCSPGDDGAIEMSWTDIEADELKEPDLTIKDFLKAIKSTRPTVNEDDLLKQEQFTRDFGQEGN
partner: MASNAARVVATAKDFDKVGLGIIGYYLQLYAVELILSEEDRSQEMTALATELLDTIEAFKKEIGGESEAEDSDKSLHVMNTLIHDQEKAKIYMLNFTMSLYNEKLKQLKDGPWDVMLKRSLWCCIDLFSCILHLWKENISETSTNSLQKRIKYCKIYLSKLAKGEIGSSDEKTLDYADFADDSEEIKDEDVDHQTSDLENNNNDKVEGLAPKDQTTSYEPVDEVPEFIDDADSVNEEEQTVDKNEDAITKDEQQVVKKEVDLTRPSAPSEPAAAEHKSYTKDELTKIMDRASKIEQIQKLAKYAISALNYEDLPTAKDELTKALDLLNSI
B2: Vacuolar protein sorting-associated protein VTA1 (Saccharomyces cerevisiae), Q06263 (parent)
chain: B1 partner
partner: B1 chain

The variants in one test derive from B1. To be noted: with vta1_yeast VTA1, Q06263.
With H359D, the “effect of a mutation on the interaction” value is “decreasing interaction”.

Variants of B2 are the subject of another test. Conditions: with vps4_yeast VPS4, P52917.
As for A307D, the “effect of a mutation on the interaction” value was “disrupting interaction”.

For the variant T315R, the “effect of a mutation on the interaction” value was “decreasing interaction”.

For the variant D312A, the “effect of a mutation on the interaction” value is “decreasing interaction”.

In the case of S306R, the “effect of a mutation on the interaction” value was “decreasing interaction”.

Consider Y303A, for which the “effect of a mutation on the interaction” value is “disrupting interaction”.
